Target: GPC3蛋白 (glypican-3 protein expressed in eukaryotic HEK293 cells) (UniProt P51654)
Assay: sandwich ELISA: coated GPC3 polyclonal antibody, GPC3 protein at varied concentration, GN1-Luc fixed at 0.2 μg/mL, luminescence; the value is a GPC3 concentration

UniProt P51654, sequence (P51654 25-559 limits assumed): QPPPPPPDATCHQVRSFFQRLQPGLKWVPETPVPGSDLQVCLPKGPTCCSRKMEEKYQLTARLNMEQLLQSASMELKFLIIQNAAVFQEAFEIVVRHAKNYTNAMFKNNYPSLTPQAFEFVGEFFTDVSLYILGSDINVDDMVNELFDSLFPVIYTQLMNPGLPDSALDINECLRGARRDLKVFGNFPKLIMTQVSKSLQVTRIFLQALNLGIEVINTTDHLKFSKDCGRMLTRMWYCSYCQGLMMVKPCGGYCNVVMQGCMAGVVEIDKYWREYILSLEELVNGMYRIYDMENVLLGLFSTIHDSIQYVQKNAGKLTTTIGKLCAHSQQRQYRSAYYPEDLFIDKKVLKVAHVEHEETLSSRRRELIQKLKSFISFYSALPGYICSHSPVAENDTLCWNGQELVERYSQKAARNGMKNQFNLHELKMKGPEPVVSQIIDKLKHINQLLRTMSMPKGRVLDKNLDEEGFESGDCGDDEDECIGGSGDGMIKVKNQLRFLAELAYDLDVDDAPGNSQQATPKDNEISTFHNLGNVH

EC20: 0.0519 µg/mL
EC80: 0.157 µg/mL
B1: 融合蛋白GN1-Luc (fusion of nanobody GN1 and Nano-luciferase) (protein, part only; not given: junction residues and His tag, part only)
chain, part: QVQLVESGGGLVQAGGSLRLSCAASGRTFVGSTMGWFRQAPGKEREFVARMSWLGRSTYYADSVKGRFTISRDNAKNTVYLQMNSLKPEDTAVYYCALALGYIDLARPDAVDAWGQGTLVTVSS
